Measurements published in the supplement of paper PMC11908140.

B1: library; numbered along this chain (parent)
chain: MRKPRAAVGSGHRKQAASQEGRQKHAKNNSQAKPSACDGLARQPEEVVLQASVSSYHLFRDVAEVTAFRGSLLSWYDQEKRDLPWRRRAEDEMDLDRRAYAVWVSEVMLQQTQVATVINYYTGWMQKWPTLQDLASASLEEVNQLWAGLGYYSRGRRLQEGARKVVEELGGHMPRTAETLQQLLPGVGRYTAGAIASIAFGQATGVVDGNVARVLCRVRAIGADPSSTLVSQQLWGLAQQLVDPARPGDFNQAAMELGATVCTPQRPLCSQCPVESLCRARQRVEQEQLLASGSLSGSPDVEECAPNTGQCHLCLPPSEPWDQTLGVVNFPRKASRKPPREESSATCVLEQPGALGAQILLVQRPNSGLLAGLWEFPSVTWEPSEQLQRKALLQELQRWAGPLPATHLRHLGEVVHTFSHIKLTYQVYGLALEGQTPVTTVPPGARWLTQEEFHTAAVSTAMKKVFRVYQGQQPGTCMGSKRSQVSSPCSRKKPRMGQQVLDNFFRSHISTDAHSLNSAAQ

Variants of: B1
Experiment: 8OG:A repair function score (normalized; synonymous = 0, nonsense = -1) (normalized log-likelihood score); higher = more repair activity (WT-like)
Details: with 8OG:A DNA repair reporter (GFP) in HEK-293 MUTYH KO cells
Method in brief: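 Per-tile Rosace fitness scores were converted to a normalized repair function score anchored on synonymous and nonsense distributions. That scale puts synonymous medians at 0 and nonsense medians at -1. Variants with starting counts under 300 counts per million were discarded. Input came from sorting viable mCherry+ MUTYH knockout HEK-293 cells, carrying lentiviral MUTYH cDNA NNN codon-scan libraries in 10 pg/ml doxycycline and an 8OG:A GFP repair reporter, into GFP+ and GFP− bins at 72 h, three replicates per tile, followed by tile amplicon sequencing.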
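Also: cells sorted at 72 h after reporter transfection.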

Variant | 8OG:A repair function score
L423V | -0.132
L423Q | 0.416
S292H | -0.00367
R219W | -0.783
P174E | -0.932
P174H | -0.972
V65I | -0.000598
P129A | -0.267
Q426N | -0.05
E451Q | -0.157
E451W | -0.143
E451Y | 0.131
E451P | -0.158
H410S | -0.169
H410E | -0.292
A147T | -0.154
Y425D | -0.805
F505W | 0.00244
N143C | -0.216
N143E | -0.196
Q499H | 0.0243
E45F | -0.059
A67P | -0.143
A67C | 0.00689

Variant | 8OG:A repair function score
L277A | -0.125
L277H | -0.0518
G444P | -0.189
V362H | -0.608
E341C | -0.0275
P317V | 0.0214
P34S | 0.0874
V242R | -0.886
V207T | -0.785
Y469V | -0.153
Q43W | -0.0384
P352G | -0.0543
A162D | -1.2
A162F | -1.26
K481V | -0.0202
K481S | -0.00188
Q144M | 0.0906
V104L | -0.583
V104K | -0.731
E64I | -0.193
T511Q | 0.0207
S515A | -0.018
S515L | -0.00831
E275S | 0.00561

Variant | 8OG:A repair function score
E90N | -0.0107
E90H | -0.0294
V427Q | -1.16
D82V | -0.0236
F200A | -0.576
V327W | -0.425
V327P | -0.051
V327C | -0.201
L58T | -0.0284
Q394I | -0.343
Q394R | -0.0703
M173I | 0.0625
V261Q | -0.57
P339A | -0.12
Q232T | -0.105
V468T | -0.0398
L315P | -0.0779
L315S | -0.102
Q159F | 0.0628
P443T | -0.199
Q282V | -0.0489
T440W | -0.105
A354M | -0.19
T122A | -0.000881

Variant | 8OG:A repair function score
N210Y | -1
S197R | -1.21
P338G | -0.0299
A203P | 0.109
S490R | 0.00301
Q181S | -0.0472
Q181D | -0.331
N329K | -0.105
K463Y | -0.191
E92Y | -0.0538
G412R | -0.598
L229H | 0.287
T263K | -0.017
E385P | -0.17
N366F | -0.0908
G372M | -0.639
A199N | -0.885
S52N | -0.0834
P402W | -0.534
S486H | 0.026
S486M | -0.00979
T439P | 0.126
T439W | 0.0448
R266A | -0.0544

Variant | 8OG:A repair function score
Q472T | -0.00129
Q472H | -0.152
Q388W | -0.0946
A520Y | 0.0286
A520P | 0.0147
G161Q | -0.911
G161I | -0.841
S71T | -0.0759
Q239C | -0.184
K3S | -0.0766
L241C | -0.37
L241F | -0.872
F250R | -1.01
R175L | -0.252
M93L | -0.0284
R409F | -0.167
R409T | 0.31
A177W | -0.324
A177V | -0.207
A177S | -0.1
R364Q | -0.529
R364G | -0.353
A357T | -0.0252
A357V | -0.0294

Variant | 8OG:A repair function score
R217K | -1.03
S153L | 0.0439
W128V | -0.224
A245M | -0.146
G155L | -0.574
G155C | -0.117
A135Y | -0.211
Q113P | -0.116
Q113L | -0.239
F330I | -0.18
Q78G | -0.0331
D94I | -0.0559
D94N | -0.0146
R495M | 0.0166
E382S | 0.000352
L268Q | -0.0131
L268G | -0.0658
L268D | 0.0003
W85V | -1.12
W85D | -1.51
W85N | -1.55
T260G | -0.126
G70L | -0.0189
V274S | -0.589

Variant | 8OG:A repair function score
A259E | -0.0308
A259Q | 0.0355
S54F | -0.0664
S54G | 0.00441
R98G | -0.574
W124T | -0.869
W124L | -0.378
Q358A | -0.219
E433A | 0.0651
G471Q | 0.00928
C262A | -1.38
K337T | -0.131
K337R | 0.000179
A519V | -0.0127
E395T | -0.194
A99V | -0.708
A99W | -1.08
L393A | -0.295
G209E | -0.837
L501N | -0.0105
G429Y | -0.0542
E106M | -0.994
K492V | -0.0261
